The target of experiment [1] is T1, 人CD40 (human, UniProt P25942 21-277).
T1 construct: whole, on cells; also called hCD40; CD40 on Daudi cells
Description: flow cytometry (MFI) on HT1080-hCD40 cells. On the technique in general: Flow cytometry measures light scatter and fluorescence of single cells or particles in a stream.

Experiment [2] concerns the target T1, 人CD40. The experiment can be described thus: flow cytometry (MFI) on Daudi cells expressing CD40.
For experiment [3], the target named is T2, mCD40-his(小鼠CD40) (小鼠 (mouse), UniProt P27512 24-193, limits assumed).
T2 construct: Bought His-tagged protein; also called 小鼠的CD40
T2 sequence (looked up): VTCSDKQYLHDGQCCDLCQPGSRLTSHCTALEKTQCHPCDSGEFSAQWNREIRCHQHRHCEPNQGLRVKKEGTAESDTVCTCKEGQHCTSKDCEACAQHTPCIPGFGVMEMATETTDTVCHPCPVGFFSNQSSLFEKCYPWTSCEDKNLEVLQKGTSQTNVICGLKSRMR
The experiment can be described thus: ELISA, 2 μg/ml mCD40-his coated, HRP second antibody. A general note: An ELISA detects its analyte on a solid surface through an enzyme-linked reagent.

T1 sequence (P25942 21-277): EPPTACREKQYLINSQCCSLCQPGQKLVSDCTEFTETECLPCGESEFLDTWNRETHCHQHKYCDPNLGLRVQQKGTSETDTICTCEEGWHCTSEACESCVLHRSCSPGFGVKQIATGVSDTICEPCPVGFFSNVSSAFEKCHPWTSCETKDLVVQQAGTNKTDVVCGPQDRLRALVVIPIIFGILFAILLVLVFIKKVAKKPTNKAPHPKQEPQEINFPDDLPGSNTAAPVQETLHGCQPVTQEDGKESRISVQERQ

B1: 抗体25 (antibody, human IgG1, kappa, V domains shown)
VH: EVQLVESGGGLVQPGGSLRLSCAASGFSFGTYAMSWVRQAPGKGLEWVSGIDSGTGNPFYADSVKGRFTISRDNSKNTLYLQMNSLRAEDTAVYYCARALYYTGFYRPLDYWGQGTLVTVSS
VL: DIQMTQSPSSLSASVGDRVTITCRASQGISSYLAWYQQKPGKAPKLLIYAASSLQSGVPSRFSGSGSGTDFTLTISSLQPEDFATYYCQQHYTTPPTFGQGTKVEIKR
notes: also called antibody 25; 抗CD40抗体
For B1, the EC50 (usually the concentration giving half of the maximal effect) in experiment [1] worked out at 0.593 µg/mL; in experiment [2], 0.414 µg/mL. The binding result in experiment [3] is “no binding”.

B2: APX005 (antibody, V domains shown)
VH: QVQLVESGGGVVQPGRSLRLSCAASGFSFSSTYVCWVRQAPGKGLEWIACIYTGDGTNYSASWAKGRFTISKDSSKNTVYLQMNSLRAEDTAVYFCARPDITYGFAINFWGPGTLVTVSS
VL: DIQMTQSPSSLSASVGDRVTIKCQASQSISSRLAWYQQKPGKPPKLLIYRASTLASGVPSRFSGSGSGTDFTLTISSLQPEDVATYYCQCTGYGISWPIGGGTKVEIK
As to B2, the values for the concentration giving a half-maximal response (EC50) in experiment [1] and in experiment [2] were 0.995 µg/mL and 0.86 µg/mL, respectively.

(Values after patent publication CN113861292A (BIO THERA SOLUTIONS LTD, dated 2021).)
